In one assay the target is T1, Scc2^1-181-Scc4 (WT) (Saccharomyces cerevisiae, UniProt P40090+Q04002).
T1 construct: made in house; host or cells: bacteria (E. coli is stated only for the Ctf19 complex proteins)
T1 sequence (P40090 1-624): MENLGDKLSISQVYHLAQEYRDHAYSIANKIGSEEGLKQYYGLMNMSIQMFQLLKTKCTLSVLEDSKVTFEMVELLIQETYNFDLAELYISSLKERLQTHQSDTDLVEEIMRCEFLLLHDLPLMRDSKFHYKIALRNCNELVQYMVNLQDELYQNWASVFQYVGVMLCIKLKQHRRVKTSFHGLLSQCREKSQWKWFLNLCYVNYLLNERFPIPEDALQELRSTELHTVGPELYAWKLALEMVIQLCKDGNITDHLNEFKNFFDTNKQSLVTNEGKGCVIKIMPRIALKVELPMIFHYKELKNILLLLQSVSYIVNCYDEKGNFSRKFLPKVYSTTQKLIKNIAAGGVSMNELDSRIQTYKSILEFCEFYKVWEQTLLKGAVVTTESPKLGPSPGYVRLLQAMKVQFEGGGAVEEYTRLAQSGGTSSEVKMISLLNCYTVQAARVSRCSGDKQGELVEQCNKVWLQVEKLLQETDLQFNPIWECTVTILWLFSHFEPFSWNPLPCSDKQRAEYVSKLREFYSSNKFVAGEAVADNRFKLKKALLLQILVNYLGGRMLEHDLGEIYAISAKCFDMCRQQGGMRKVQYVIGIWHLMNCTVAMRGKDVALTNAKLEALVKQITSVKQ
T1 sequence (Q04002 1-181 partner limits assumed): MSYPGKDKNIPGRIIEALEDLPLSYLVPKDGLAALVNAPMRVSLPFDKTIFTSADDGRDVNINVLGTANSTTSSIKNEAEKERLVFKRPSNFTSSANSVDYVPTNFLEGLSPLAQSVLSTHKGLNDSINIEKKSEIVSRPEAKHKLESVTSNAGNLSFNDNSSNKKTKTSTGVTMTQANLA
The assay is described as follows: Peptide binding to Scc2^1-181-Scc4 WT by biolayer interferometry. To be noted: immobilized Scc2^1-181-Scc4 WT on NiNTA tips, 40mM HEPES, pH 7.5, 200mM NaCl, 1mM DTT, three independent experiments, SE for best-fit binding curve, single site, specific binding. Also on record: species or system budding yeast. The procedure: Figure S5 Synthetic Ctf19^1–11 binds Scc2^1–181-Scc4, and Binding Requires Phosphorylation of Ctf19 Residue T4 or S5, Related to Figure 6 Experiments were carried out as in Figure 6B (error bars – +/−SD for three independent experiments, obscured by data points where not visible). m3 refers to immobilized Scc2^1-181-Scc4^m3. Ctf19 peptides and Scc2^1-181-Scc4 complexes used are listed in the table along with measured dissociation constants (Kd; SE – standard error for best-fit binding curve; single site, specific binding; Phos. – phosphorylated residues). TEXT PRINTED IN THE PICTURE: Ctf19 residues 1-11; Phos. none: Kd(±SE)(μM): n.d. (Scc2^1-181-Scc4: WT) | Ctf19 residues 1-11; Phos. pT4: Kd(±SE)(μM): 1757(6000+) (Scc2^1-181-Scc4: WT) | Ctf19 residues 1-11; Phos. pS5: Kd(±SE)(μM): 122(66) (Scc2^1-181-Scc4: WT); Kd(±SE)(μM): n.d. (Scc2^1-181-Scc4: m3) | Ctf19 residues 1-6; Phos. pT4;pS5: Kd(±SE)(μM): 22.6(3.0) (Scc2^1-181-Scc4: WT)
We used biolayer interferometry (ForteBio) to quantify the interaction between Scc2^1-181–Scc4 and synthetic peptides derived from the N-terminal region of Ctf19 (Tufts University Core Facility, Boston). For all steps, we used octet buffer (40mM HEPES, pH 7.5; 200mM NaCl; 1mM DTT) and low-volume 96-well opaque black plates. […] This step was allowed to reach saturation before a final incubation in octet buffer.
To derive binding curves, we first applied a linear correction so that all association steps began at zero response units. We then performed a linear drift correction by subtracting the signal for Scc2^1-181-Scc4 incubated in buffer alone during the association step (no peptide, linear subtraction for each time point, independent control for each experiment). We then applied a loading factor to correct for the Scc2^1-181-Scc4 immobilization efficiency for each well. From these normalized association curves, we extracted maximum responses for each well by averaging the signal across the final ten seconds of the association step. We performed these operations for three independent experiments, performed with new tips and samples, for each data point. […] Data points represent mean maximum responses, and error bars show the standard deviation for the three experiments. Fits were determined using GraphPad Prism software assuming a single specific binding site.
On the technique in general: Biolayer interferometry detects binding as a change in optical thickness at a sensor tip.

The target of assay [1] is T2, Scc4, as in the crystallised Scc2^1–181-Scc4 complex (S. cerevisiae, UniProt P40090 1-624).
T2 construct: Scc4, budding yeast cohesin loader subunit; Single chain of m8, for the pairs within the structure; not shown: 6His, N-terminal, cleaved
T2 sequence: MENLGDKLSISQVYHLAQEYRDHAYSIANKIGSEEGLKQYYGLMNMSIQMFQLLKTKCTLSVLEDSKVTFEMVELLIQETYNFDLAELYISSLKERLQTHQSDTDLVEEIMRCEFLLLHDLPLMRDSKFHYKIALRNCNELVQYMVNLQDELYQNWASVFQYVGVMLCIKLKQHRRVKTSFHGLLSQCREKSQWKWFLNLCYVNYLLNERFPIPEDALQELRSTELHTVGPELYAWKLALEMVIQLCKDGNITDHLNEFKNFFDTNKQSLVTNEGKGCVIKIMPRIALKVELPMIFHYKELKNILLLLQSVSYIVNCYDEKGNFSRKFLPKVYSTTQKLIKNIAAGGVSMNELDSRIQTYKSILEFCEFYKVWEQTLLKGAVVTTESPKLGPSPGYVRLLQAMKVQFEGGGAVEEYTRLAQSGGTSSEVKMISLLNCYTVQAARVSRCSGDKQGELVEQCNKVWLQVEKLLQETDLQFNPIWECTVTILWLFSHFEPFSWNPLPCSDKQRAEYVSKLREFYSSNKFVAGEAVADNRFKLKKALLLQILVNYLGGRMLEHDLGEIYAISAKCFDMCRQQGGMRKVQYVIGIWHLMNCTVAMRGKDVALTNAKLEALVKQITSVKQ
The assay is described as follows: crystal structure; TEV-cleaved Scc2 1-181-Scc4 mixed with Ctf19 1-6 diphosphorylated peptide at 1:1.8; 8% PEG 4,000, 80mM PIPES pH 6, 18°C; space group P6_2, 3.19Å. To be noted: both partners purified.

Assay [2] addresses T3, Scc2^1–181-Scc4 complex, wild type, tagged (6His-FLAG-Scc2 1-181; 6His-Scc4) (S. cerevisiae, UniProt Q04002 1-181; P40090 1-624).
T3 chain 1: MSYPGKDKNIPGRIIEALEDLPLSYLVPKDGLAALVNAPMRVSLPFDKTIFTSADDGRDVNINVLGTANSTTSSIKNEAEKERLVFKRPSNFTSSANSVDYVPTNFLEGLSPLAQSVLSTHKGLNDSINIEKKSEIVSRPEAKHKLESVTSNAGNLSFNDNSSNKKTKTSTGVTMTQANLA
T3 chain 2: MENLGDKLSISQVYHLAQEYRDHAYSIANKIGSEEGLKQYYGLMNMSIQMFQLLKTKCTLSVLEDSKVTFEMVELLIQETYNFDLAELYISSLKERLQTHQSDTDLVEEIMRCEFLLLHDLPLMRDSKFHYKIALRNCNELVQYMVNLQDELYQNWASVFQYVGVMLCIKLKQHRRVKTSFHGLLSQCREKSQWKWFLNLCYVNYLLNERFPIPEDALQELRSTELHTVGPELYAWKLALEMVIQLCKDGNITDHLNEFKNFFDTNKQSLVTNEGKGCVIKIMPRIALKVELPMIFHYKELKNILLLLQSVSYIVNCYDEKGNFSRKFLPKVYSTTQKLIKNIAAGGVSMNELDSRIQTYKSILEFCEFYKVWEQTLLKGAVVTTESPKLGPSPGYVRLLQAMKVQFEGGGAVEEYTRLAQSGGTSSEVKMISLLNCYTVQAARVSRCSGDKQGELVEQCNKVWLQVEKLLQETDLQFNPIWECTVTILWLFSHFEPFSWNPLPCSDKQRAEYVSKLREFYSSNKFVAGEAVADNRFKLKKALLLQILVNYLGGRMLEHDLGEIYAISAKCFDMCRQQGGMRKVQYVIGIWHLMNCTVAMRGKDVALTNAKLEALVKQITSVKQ
Description: BLI; phosphorylated T4; SE 6000+.

In assay [3] the target is T4, Scc2^1–181-Scc4 complex, wild type, tagged (6His-FLAG-Scc2 1-181; 6His-Scc4) (S. cerevisiae, UniProt Q04002 1-181; P40090 1-624).
T4 construct: Scc4, budding yeast cohesin loader subunit; source: recombinant, expressed in bacteria, purified; not shown: 6His, N-terminal, kept; FLAG, N-terminal, kept
T4 sequence 1: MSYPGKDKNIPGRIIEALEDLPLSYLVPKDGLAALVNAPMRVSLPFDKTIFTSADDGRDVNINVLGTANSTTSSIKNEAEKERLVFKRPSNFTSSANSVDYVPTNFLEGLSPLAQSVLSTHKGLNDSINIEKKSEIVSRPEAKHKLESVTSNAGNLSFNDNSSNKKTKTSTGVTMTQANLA
T4 sequence 2: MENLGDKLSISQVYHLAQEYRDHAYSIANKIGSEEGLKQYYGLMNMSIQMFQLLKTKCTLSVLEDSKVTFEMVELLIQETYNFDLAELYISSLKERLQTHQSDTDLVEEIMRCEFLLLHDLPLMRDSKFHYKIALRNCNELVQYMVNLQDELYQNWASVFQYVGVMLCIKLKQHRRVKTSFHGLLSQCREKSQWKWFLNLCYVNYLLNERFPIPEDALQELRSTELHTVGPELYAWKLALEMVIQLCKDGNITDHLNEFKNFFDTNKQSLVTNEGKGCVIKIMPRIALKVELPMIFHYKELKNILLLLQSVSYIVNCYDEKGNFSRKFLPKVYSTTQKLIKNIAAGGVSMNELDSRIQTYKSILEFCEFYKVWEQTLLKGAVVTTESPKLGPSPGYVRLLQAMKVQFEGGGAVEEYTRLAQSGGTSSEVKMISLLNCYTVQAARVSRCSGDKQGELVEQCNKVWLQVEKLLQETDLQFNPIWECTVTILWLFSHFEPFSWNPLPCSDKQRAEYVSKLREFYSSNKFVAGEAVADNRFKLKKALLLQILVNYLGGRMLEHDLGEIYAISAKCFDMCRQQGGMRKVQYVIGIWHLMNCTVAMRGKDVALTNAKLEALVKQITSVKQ
Description: BLI; ForteBio; 6His-tagged Scc2 1-181-Scc4 captured on NiNTA tips, Ctf19 peptides in solution at varying concentrations; 40mM HEPES pH 7.5, 200mM NaCl, 1mM DTT; steady-state responses, single specific site fit (Prism); three independent experiments. To be noted: both partners purified.

For assay [4], the target named is T3, Scc2^1–181-Scc4 complex, wild type, …. Description: BLI; phosphorylated S5.

Non-standard residues stand in square brackets, D forms with d. Residues, ends and D or L forms follow the SMILES beside them. No end group written: not given here. pT = C[C@@H](OP(=O)(O)O)[C@H](N)C(=O)O; pS = N[C@@H](COP(=O)(O)O)C(=O)O

Regarding `CSCC[C@H](N)C(=O)N[C@@H](CC(=O)O)C(=O)N[C@@H](Cc1ccccc1)C(=O)N[C@H](C(=O)N[C@@H](COP(=O)(O)O)C(=O)N[C@@H](CC(=O)O)C(=O)O)[C@@H](C)OP(=O)(O)O` [Ctf19 residues 1-6; Phos. pT4;pS5] (HELM PEPTIDE1{M.D.F.[C[C@@H](OP(=O)(O)O)[C@H](N[*:1])C(=O)[*:2]].[O=C([C@H](COP(=O)(O)O)N[*:1])[*:2]].D}$$$$V2.0), the affinity at Scc2^1-181-Scc4 (WT), expressed as Kd, was 22.6 µM.

B1: Scc2^1–181, as in the crystallised Scc2^1–181-Scc4 complex (domain or fragment, S. cerevisiae, UniProt Q04002 1-181, looked up)
chain: MSYPGKDKNIPGRIIEALEDLPLSYLVPKDGLAALVNAPMRVSLPFDKTIFTSADDGRDVNINVLGTANSTTSSIKNEAEKERLVFKRPSNFTSSANSVDYVPTNFLEGLSPLAQSVLSTHKGLNDSINIEKKSEIVSRPEAKHKLESVTSNAGNLSFNDNSSNKKTKTSTGVTMTQANLA
notes: Single chain of m8, for the pairs within the structure; also called Scc2n; source: recombinant, purified with Scc4, tags cleaved with TEV protease; not shown: 6His, N-terminal, cleaved
Consider B1, for which the binding result in assay [1] is “binds”.

B2: Synthetic Ctf19^1–11 peptide phosphorylated at T4 (MDFpTSDTTNSH) (peptide)
peptide: MDF[pT]SDTTNSH
B2: the Kd in assay [2] came to 1760 µM.

B3: Synthetic Ctf19^1–6 peptide phosphorylated at T4 and S5 (MDFpTpSD) (peptide)
peptide: MDF[pT][pS]D
notes: Ctf19 residues 1-6, budding yeast; also called phosphorylated Ctf19^1–6; Ctf19^1-6 diphosphorylated peptide; source: synthetic peptide (Tufts Univ. Core Facility)
The molecule B3 yielded a Kd in assay [3] of approximately 23 µM.

B4: Synthetic Ctf19^1–11 peptide phosphorylated at S5 (MDFTpSDTTNSH) (peptide)
peptide: MDFT[pS]DTTNSH
As to B4, binding in assay [4] was put at a Kd of 122 µM.

As usually defined, the Kd is the concentration at which binding is half-saturated. A lower Kd goes with tighter binding.
